Test system: primary human B cells
Test: Expansion and maintenance of BCL-6/BCL-XL/CD40L transduced primary human B cells in culture
Assay type: cell-based
Conditions: BCL-6/BCL-xL transduced B cells, IL-21 50 ng/mL, absence of L-cells
Procedure: The activated, isolated B cells (FIG. 7A) were stably transduced with BCL-6/BCL-xL or a combination of BCL-6/BCL-XL and CD40L based protocols for retroviral transduction of primary B cells have been described in the literature (e.g. Kwakkenbos et al. Nat Med 2010) and as described in this invention (Example 10).
After 72 hours BCL-6/BCL-XL modified B cells were harvested, split and either cultured in the absence of L-cells or cultured on hCD40L expressing L cells. BCL-6/BCL-xL and CD40L transduced B cells are cultured in complete B cell medium supplemented with 50 ng/mL IL-21 in the absence of L-cells. […] CD40L expression on the B cells is measured on a flow cytometer using an antibody directed against CD154 (FIG. 7C).
B cells were isolated from healthy donor PBMC using the magnetic bead-based cell separation method from Miltenyi. […] Purity of the isolated B cells was measured by FACS using antibodies directed against CD3 and CD20. […] Expression of BCL6/BCL-xL was measured by FACS by GFP expression. […] Expression of BCL6/BCL-xL was measured by GFP expression and expression of CD40L was measured using an antibody directed against CD154, analyzed by FACS. […] Cells were split twice a week at a concentration of 0.2e6/mL cells and cell viability was analyzed. […] The total cumulative cell counts was calculated based on counts that were measured while splitting the cells. […]

B1: CD40L transgene: hCD40L transgene expressed in BCL-6/BCL-xL immortalized B cells (protein)
DNA: MIETYNQTSPRSAATGLPISMKIFMYLLTVFLITQMIGSALFAVYLHRRLDKIEDERNLHEDFVFMKTIQRCNTGERSLSLLNCEEIKSQFEGFVKDIMLNKEETKKENSFEMQKGDQNPQIAAHVISEASSKTTSVLQWAEKGYYTMSNNLVTLENGKQLTVKRQGLYYIYAQVTFCSNREASSQAPFIASLCLKSPGRFERILLRAANTHSSAKPCGQQSIHLGGVFELQPGASVFVNVTDPSQVSHGTGFTSFGLLKL
  B cell expansion without CD40L-expressing feeder cells: can be used as a replacement for CD40L-expressing feeder cells for expansion

From patent US20220228164A1, “ENGINEERED ANTIGEN PRESENTING CELLS” (Neogene Therapeutics B.V., priority 2021, published 2022)
